B1: Cp12β-HSDH (Clostridium paraputrificum) (protein)
chain: MKELNEKVAIITGAGQGIGKGIALHLGKRGVKVVCVGRRLDPIVQTVKEVEEAGGQGFAITCDVGNREDVKKVVKATVEKYGTVDVVVNNAQSLPGSAKVEDTTYEQMLTAWQSGTIGSLNMMQECFPYMKDQNEGRIINFASATGMFGYAGQLAYGCNKESIRGLTKIAAKEWAQYNIIVNCVLPGAESPAAKVWAEKFPEKYKEIMEAQPMKRFGDGEDDIGRVIAFLAGPDSKYYTGQCLLVDGGYSIAP
notes: full length, N-terminal His6 tag (pET-28a(+)), E. coli BL21-CodonPlus(DE3) RIPL, TALON purified

Columns and labels:
[1] = molecular target: Clostridium paraputrificum ATCC 25780 bile acid 12β-HSDH (WP_027099077.1) (Clostridium paraputrificum ATCC 25780); assay: SEC; Superose 6 10/300 GL analytical column, 4°C, 50 mM Tris-Cl, 150 mM NaCl, pH 7.5; purified protein loaded at 10 mg/mL, 0.3 ml/min; native mass estimated against Bio-Rad gel filtration standards
purified protein [2] = substrate: NC(=O)C1=CN([C@@H]2O[C@H](COP(=O)(O)OP(=O)(O)OC[C@H]3O[C@@H](n4cnc5c(N)ncnc54)[C@H](OP(=O)(O)O)[C@@H]3O)[C@@H](O)[C@H]2O)C=CC1; assay: purified protein; settings: reductive direction, 80 µM 12-oxoLCA, 10 nM enzyme, sodium phosphate pH 7.0, varied: cofactor
purified protein [3] = substrate: NC(=O)c1ccc[n+]([C@@H]2O[C@H](COP(=O)(O)OP(=O)(O)OC[C@H]3O[C@@H](n4cnc5c(N)ncnc54)[C@H](OP(=O)(O)O)[C@@H]3O)[C@@H](O)[C@H]2O)c1; assay: purified protein; type: biochemical, Clostridium paraputrificum; settings: oxidative direction; 100 µM epiDCA; 10 nM enzyme; sodium phosphate pH 7.5; pH 7.5; varied: cofactor
purified protein [4] = substrate: [H][C@]12CC[C@]3([H])[C@]([H])(CC(=O)[C@@]4(C)[C@@]3([H])CC[C@]4([H])[C@H](C)CCC(=O)O)[C@@]1(C)CC[C@@H](O)C2; assay: purified protein; type: biochemical, Clostridium paraputrificum; settings: reductive direction; 150 µM NADPH; 10 nM enzyme; sodium phosphate pH 7.0; pH 7.0
purified protein [5] = substrate: C[C@H](CCC(=O)O)[C@H]1CC[C@H]2[C@@H]3CC[C@@H]4C[C@H](O)CC[C@]4(C)[C@H]3C[C@@H](O)[C@]12C; assay: purified protein; type: biochemical, Clostridium paraputrificum; settings: oxidative direction; 300 µM NADP+; 10 nM enzyme; sodium phosphate pH 7.5; pH 7.5

Row | stoichiometry N [1] | Molecule | Km (purified protein [2]) [µM] | Vmax (purified protein [2]) [µmol/min/mg] | kcat (purified protein [2]) [s⁻¹] | kcat/Km (purified protein [2]) [M⁻¹ s⁻¹] | Km (purified protein [3]) [µM] | Vmax (purified protein [3]) [µmol/min/mg] | kcat (purified protein [3]) [s⁻¹] | kcat/Km (purified protein [3]) [M⁻¹ s⁻¹] | Km (purified protein [4]) [µM] | Vmax (purified protein [4]) [µmol/min/mg] | kcat (purified protein [4]) [s⁻¹] | kcat/Km (purified protein [4]) [M⁻¹ s⁻¹] | Km (purified protein [5]) [µM] | Vmax (purified protein [5]) [µmol/min/mg] | kcat (purified protein [5]) [s⁻¹] | kcat/Km (purified protein [5]) [M⁻¹ s⁻¹]
1 | 2 | Clostridium paraputrificum ATCC 25780 bile acid 12β-HSDH (WP_027099077.1) (enzyme) | – | – | – | – | – | – | – | – | – | – | – | – | – | – | – | –
2 | – | B1 | 29.16 ± 0.42 | 61.8 | 28.1 | 970000 | 36.84 ± 0.55 | 97.9 | 44.6 ± 3.77 | 1.21e+06 ± 120000 | 18.76 ± 0.40 | 58.4 | 26.6 ± 1.62 | 1.42e+06 ± 110000 | 44.43 ± 1.13 | 130 | 59.3 ± 5.47 | 1.34e+06 ± 150000

From publication PMC8096331, “Completion of the gut microbial epi-bile acid pathway” (Gut Microbes, 2021)
